Several values for one entry are separate records, joined by “and”; a condition that tells them apart may be missing. Equal entries are not always repeated. Where two headings read alike, the source gives them in different places.
Experiments:
SAXS [1] = target: the molecule itself; assay: SAXS
SAXS [2] = target: the molecule itself; assay: SAXS; remark: listed apart in the source

B1: Hepatitis B virus capsid protein assembly domain (cp149) dimer (domain or fragment)
chain: MDIDPYKEFGATVELLSFLPSDFFPSVRDLLDTAAALYRDALESPEHCSPHHTALRQAILCWGDLMTLATWVGTNLEDPASRDLVVSYVNTNVGLKFRQLLWFHISCLTFGRETVLEYLVSFGVWIRTPPAYRPPNAPILSTLPETTVV
For B1, the “stoichiometry N” value (SAXS [1]) was 240 monomers and 180 monomers and the “stoichiometry N” value (SAXS [2]) was 2.

Reference: publication PMC7243059 (ACS nano, 2019)
